This test deals with SARS-CoV-2 Spike S1 (Omicron), His-tagged (SARS-CoV-2 Omicron B.1.1.529 BA.1, strain). Put plainly: SPR. A general note: In SPR one partner is held on a chip, and binding of the other changes the refractive index at the surface.

As usually defined, the Kd is the free concentration of one partner at which half of the binding sites on the other are occupied at equilibrium, for simple one-to-one binding. Read a high Kd as weaker binding. A word on the koff: it is the first-order rate constant of dissociation. Low values mean slow dissociation, high ones fast dissociation. A word on the kon: it is the second-order rate constant of association. A lower kon goes with slower complex formation.

B1: LY-CoV1404 (bebtelovimab) reference clone neutralizing antibody (antibody, V domains shown)
VH: QITLKESGPTLVKPTQTLTLTCTFSGFSLSISGVGVGWLRQPPGKALEWLALIYWDDDKRYSPSLKSRLTISKDTSKNQVVLKMTNIDPVDTATYYCAHHSISTIFDHWGQGTLVTVSS
VL: QSALTQPASVSGSPGQSITISCTATSSDVGDYNYVSWYQQHPGKAPKLMIFEVSDRPSGISNRFSGSKSGNTASLTISGLQAEDEADYYCSSYTTSSAVFGGGTKLTVL
B1 came in with a Kd of 85.5 nM, a koff of 0.00677 s⁻¹ and a kon of 79200 M⁻¹ s⁻¹.

B2: S309 (sotrovimab) reference clone neutralizing antibody (antibody, V domains shown)
VH: not shown
VL: EIVLTQSPGTLSLSPGERATLSCRASQTVSSTSLAWYQQKPGQAPRLLIYGASSRATGIPDRFSGSGSGTDFTLTISRLEPEDFAVYYCQQHDTSLTFGGGTKVEIK
The molecule B2 displayed a Kd of 24.5 nM, a koff of 0.000395 s⁻¹ and a kon of 16200 M⁻¹ s⁻¹.

The values above are taken from article PMC9359501 (Med (New York, N.Y.), 2022).
